According to patent US20230357364A1:

Biological target: SARS-CoV-2 spike D614G (pseudovirus) (SARS-CoV-2) (UniProt P0DTC2)
Assay: cell-based or functional assay

| Substance | PSV in HeLa-ACE2 cells IC50 |
| --- | --- |
| REGN10933 (antibody) | 0.009 µg/mL |
| REGN10987 (antibody) | 0.019 µg/mL |
